Source: PMC3935622

Molecular target: S. Typhimurium CueP C172S mutant (S. Typhimurium)
Assay: SEC

With “S. Typhimurium CueP C172S mutant (natural protein)” the stoichiometry N was 4.
